Measurements: publication PMC12747267 (bioRxiv, 2025)

Molecular target: the molecule itself
Assay: cryo-EM structure

B1: human myosin regulatory light chain (RLC, MYL12B) (natural protein, UniProt O14950 1-172, looked up)
chain: MSSKKAKTKTTKKRPQRATSNVFAMFDQSQIQEFKEAFNMIDQNRDGFIDKEDLHDMLASLGKNPTDAYLDAMMNEAPGPINFTMFLTMFGEKLNGTDPEDVIRNAFACFDEEATGTIQEDYLRELLTTMGDRFTDEEVDELYREAPIDKKGNFNYIEFTRILKHGAKDKDD
Question: Does B1 bind?
Answer: Result: binds
